Earlier results in PMC12406711.

Target: PCDH10 ECD (Homo sapiens) (UniProt Q9P2E7)

For PCDH10 ECD (from UniProt Q9P2E7), the Kd is given as 3.6 µM.
